Experiment: label from the status in PepcDB records
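Further: failed if final PepcDB status was selected cloned or expressed and not failed if soluble or beyond.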

| Sequence | protein production |
| --- | --- |
| AKTWVLTNAEEGIDKGNWQINSDQLKVKDHAFSIEQKVLHGGKQEGSKILTIHSKDGLTITLSPTRGMNLLRIEGFGSRMGWDSPVKEVVNPAFINLESRNGLGWLEGFNEMMVRCGYEWTGHPVTADGQIYTLHGKAGNTPASLVEVEVADSAPYEIRIRGLVKESTFKKADLQTLTELRYVPGSNSFSLHDVLTNHADYPHDYQIIYHSNFGTPILEEGARFLAPISSISPFNDYAKSGLKTWQTYQGPTKDFDEMVFNIQPLADENHQTLAAVVNKAGDKGASIQFDTRQLPVLTLWKNTDTVKQGYVTGIEPGTSYAYPVTIERKQKRVKQLQPGASAQFDLTYTLLHDSAQVAAVEQKIAKIQGDNKVAENETPIAKE | not failed |
| MLEKVEEWIKARGLTWRLLIMQKPTRTVAEAAALLGVSESEIVKTLIVLDNAGGVYAVVIPGDKRLNINSMKELAGKPVRLARANEVVELTGYPVGGVPPVALPPNIVLVVDRILLSRKKVYGGGGRENALLEFSPRELVEATGAVVADVSE | not failed |
| MTRTISRILVTGTSGQLGALVIEELLKKIHASHLIAAARDPKALMAFSRRGVETRLLDYTDQISIEAAFQGVERLLLVSSNVIDQRLVQHRNVIEAAARAGVGLFAYTSLLHADNSSLLLAKDHVQTEALLKGSGIPYVLLRNGWYTENYTDSIGAALVHGAVLGSAGTGRIAAATRADYAAAAAAILASDVDQAGRTYELAGDEAFTMPEYAAEIAQQSGKPVIYRDLPEAEYAAILMQVGLPESFAAILAQSDIGASQGALFDDSHQLSTLIGRPTTPLREVVAKALSAVR | failed |
| SVSLVGPAPWGFRLQGGKDFNMPLTISSLKDGGKASQAHVRIGDVVLSIDGISAQGMTHLEAQNKIKACTGSLNMTLQRASAAAKSEPVS | not failed |
| MASTAVSELVFFIVTLLITASAVAVLSDQTIHIVYGMQSSSQRTTDMIQENFAIINNPDQIPYDNGYVFYIKNTGSVGFAFDNTSISVLVDGSAVTGKYVKFISLENSSILVPGQVGEIVVNETLSGYNSITISLGTGVSHTFNFEV | failed |
| MNALAVRWNDWPITRKSLAVVTLPLLLLAVALMAIYSVERQNIAAENDVRQTLEVLSDLYEAHALLAETAAGVRGYRLVRRDEFLTPYRDAEPRLQRVADRLSQRITDPSQAQRFARIKPLFAEKMQGWRRLLAPDLSREEEIRQLWDGKYKLDILRAELRELRNYETAQLQVRTAKAQGLRQRNLIITLSAAMLGGLGAVFAVAWFASALSGRLRTLAANADRLGEGLPLAPQPRAGDELGQVGQRLAQASELLAARAAEAQLARREAETANRAKTEFLSRSSHELRTPLNAILGYAQVLEMDLPEPGHRRHLRHILGAGRHLLGLITELLDIARIEADQLDLSPEPISVRAAVHEALGLIAPDADKHGIALQPASIDGPWTVRADAQRLRQVLLNLLSNAVKFNRTGGQVQVSAQADGEQVRITVADQGAGLTPAQIERLFTPFERLGAERSAVEGTGLGLALSKRLIEAMGGQIGVDSSSDGARFWISLPQGEHQHSEPTRPLVPPSNAGSGVCRLLSIEDNPSNQALIRTLTERRPQWQLLEAASLAQARELLQHGAPDLILLDLHLSDGNGEELLRELQAQPAMAAIPVVVISADATSATLARVGNQGVRAYLTKPLDVAEFFTVIDGLLA | not failed |
| GEVVLKMKVEGMTCHSCTSTIEGKIGKLQGVQRIKVSLDNQEATIVYQPHLISVEEMKKQIEAMGFPAFVKKIEGR | not failed |
| MAQRVQLTATVSENQLGQRLDQALAEMFPDYSRSRIKEWILDQRVLVNGKVCDKPKEKVLGGEQVAINAEIEEEARFEPQDIPLDIVYEDEDIIIINKPRDLVVHPGAGNPDGTVLNALLHYYPPIADVPRAGIVHRLDKDTTGLMVVAKTVPAQTRLVESLQRREITREYEAVAIGHMTAGGTVDEPISRHPTKRTHMAVHPMGKPAVTHYRIMEHFRVHTRLRLRLETGRTHQIRVHMAHITHPLVGDPVYGGRPRPPKGASEAFISTLRKFDRQALHATMLRLYHPISGIEMEWHAPIPQDMVELIEVMRADFEEHKDEVDWL | not failed |
| MMSNLCKYGPPPDSDSDSSYDGFYFSDKVKRSKPAPYVDPEQKLYDAVVAGDLKTMQEEMRKLVLQVDQPVKGGLNLLMLACREGHYKIVEWLLERAGANVNRQLDSLMPLMMACNTTHKDPCLAERIVGLLLRHGAVINVSEKYGMTPFMFACQNGFAGVVRLLIKDASFDAVDNQGCTAIFHAIEKNHVEVVKLLVEAGANATIANNKGYTPTQVAECHGYYDLLEILPRPASTYLVPTHFLGYNTLRDHIPRIFLKSDCPEYFQELNGILEAINIGNMVQYFAIARISLADFLVMDEQSLREIGIEYPIFRHKILTGILDFHLHHWSNSSIARVKKDEMNNFYEILLITASHLQHLVIIQASLRFILKNQEHNKMGQPSEMQVAAMKSNLQGYRDVLNQITKTVKYLGSFSPSQNPLFIDFNEILAERKRKKVRSYFKYTTIILGISVFICLKCKWFS | failed |
| MKSAPAVISVAFVLGLLTWLLLHGLNINSARYDSQLRALGDFTRFERGMTREVLTARAGLSRNYDALVHMVNAYDDALTRLRDTAGLDAEQTRVIDVLSARADRQESLIERFKSRNALLQNSFAYFGLFSDRLAASESRPVVTAASALAAAMLRLTLDTSDAAARQVEDRLEELAQLQAPPAETDSVHALLLHGQMLHDLLPDIDTILKTLVAESNNREQDAMLAVILKRQLAARASARKTRLLQYITSLLLLSGIIYFGMLLRKRAMALRRRAAFEHVIANISMLFINSSNDGIDADVEMALRQLAGCIGADRAYFACVVGTTMHTYRWSRDGIAFEPGWPERVLSLAPRLDGGEDGIVYIPRMNASHPHDAMLTEAGVSGWLCIMAAYGSRDGILGFDAVRGGALTYWSEVSLFRMAFDAIGNAIRRARLEGEKERLQASLQQARRMETIGTFASGIAHNFNNIVGAILGHAEMADARVAPGSRPAASLAEIRRAGERARELVEQILGFGRRGEGRRERVCLRTLVDETRSLLAASLPSHVTFEVDETADIAIVTGEPAQLQQVILNLCNNAAQAMKEPGRIELRIKVHDLVKPLSIGRSEVGPGRFTVISVADPGPGMDEATLERIFEPFFTTRPDGNGLGLATVREIVEQHGGAVAVQSRPDAGTRFDIWLPSGEPVEPQPAQHGSDPAFLGAGETVLVIDTDRRRLLRYEEILAALGYEPVGFTGLAEAIAACRAAHARFDAALVCHLPGGSSLDLAAALHDAAPALPIILAAPSTRDLAMPSLKTSGITELVHHPLASAELASALARSLVSSATSGRLRRAAGAS | failed |
| MSDPITLNVGGKLYTTSLATLTSFPDSMLGAMFSGKMPTKRDSQGNCFIDRDGKVFRYILNFLRTSHLDLPEDFQEMGLLRREADFYQVQPLIEALQEKEVELSKAEKNAMLNITLNQRVQTVHFTVREAPQIYSLSSSSMEVFNANIFSTSCLFLKLLGSKLFYCSNGNLSSITSHLQDPNHLTLDWVANVEGLPEEEYTKQNLKRLWVVPANKQINSFQVFVEEVLKIALSDGFCIDSSHPHALDFMNNKIIRLIRYR | failed |
| MTKKLNPLEDPPTATSSDEDDVETSEAGEASDDSSSSEEDVPIKIRIKSPSATTAAAPPAKSTAVSTAADSDSGSETETDSDSESTNPPNSGSGKTIALNTVNLKKKEDPTSSSATLALPAMKSGTKRPASEAAATTSTKRVKKDEESVKKPGGFQRLWSEEDEILVLQGMIDFKADTGKSPYVDTNAFYDFLKKSISFEVSKNQFMDKIRSLRKKYIGKEGRNEPSFVKAHDKKAFELSKFIWGPKGIALDSNVKSNGVSKKSVAKKKIDSVKQELVFAGGSSTNGKKVEEDGGDDGCDWFDNSSLVRMIASLGVDEYYVKQQWSLVSVESKKIVEEKYKLLQAKELEFVLEKTKFLNEVASMFVEASKNKPLDT | failed |
| MAHHHHHHMGGPPTIEELKREKIIPHVFPDENVDLTVDMYISFKSGKEVNHGNILDLAGTGSVPRNIKFSEEPPEDYCYILFMIDPDFPSRRRPDGRDYVHWAVSGIKSKELVKGTDKNCITLLPYVGPSIKKGTGLHRISFILSLVKEENKGNVTGVPLYRGEHYITRVKFNNCQSAYNVIQMNDMKIVGFNWCQIEA | not failed |
| MASAMLATLELDYFRAVSLYRRRSYERCAELCNALLQAGHDGHVQLFTTKEEEEEEQHQQQQAEHSRFGSNLQRIGPRPRGAAGGGAGAVDSGPSIMMPTWLMEGVWQLKMRALTQRVYVDDLDEDDGGNEATEEVEFERIATAARPGSSIKTAFQPRPLTSQRAQQARSRGAGVAHSSDGRLNSSRPGSAAVARPGTSLSRPGSSLGSRCGTASRIRATSAAAFNVGDATSKLYQASRLNPTIYAERETLVKALFQFLYYHEADVQKAHSLCQAVLEVERQKPSGSTGCTLSWWWQQQMGRCLLALHYPRRAEPFLQQSLTSFPHPDTYLLLSRVYQRIKQPERALLVIGEVVDSRPFDVTYRLEQARIHQAMEQQEDALQLYRLAAKLHPINVESLASIAVGYFYDNNPEMALMYYRRILSLGAQSPELYCNIALCCLYGGQIDLVLPCFQRALATATQPGQKSDIWYNLSFVAVTSGDFNLAKRCLQLCLTSDAQNGAALNNLAVLAAQSGDILGAKSYLNAAKDVMPDAAEVTTNLQFMDVHYKL | failed |
| MAEKRTLIAVIADEDTTTGLLLAGIGQITPETQEKNFFVYQEGKTTKEEITDKFNHFTEERDDIAILLINQHIAENIRARVDSFTNAFPAILEIPSKDHPYDPEKDSVLKRVRKLFGE | failed |
| MDSRAAAEPIPHVSPSPFPNPSAVNQTLEERLGLDLVQVYDWDWWGTLVQSGESLLLILSTLWCILLARVVCQKLRLHGSADLCYATEFLLVILPCILLVSVAVDYSGYIGLLMLVATLWFLRTSRALERARTRVQFDLGGNRPMCLSILRALTHLITAVCILAIDFGSFYRPYRKSRQFGAKLMDTGIGLFVFTMAMVSRRTRHWSDLRRSVIYSALPLILLGLARTVSILTLSYGQDAHEYGQHLNAFFTLGFTKFLGSLVSILARKDLHLLPLGFGLLVIHQFGLSVLGISDYVMNEDVERSSFLNANREGLVSLPGFVGLFLLSIYVNRWMVAKSLLTYSEFVRKLRRLFYLVLILWTSFVISAYEIGISRVTCNLGYVIWMLAIGSTTLCASFGAIDFAINSVMPWDPNPWEDHEKGLLSGEAVVKKRGGSVVPFTISQALNKNGLTFFLVANILTGMVNIFLRPEDRSHSESVIILLVYMFLATKLVHELLKRGIRLA | failed |
| MFSIIWMLFTPLLLLCGIAGGIFLIVTGIKYRKLLVGLMGLLSLSFVTLPFVLLSVGIHIDTIFPIPTALYWTLFSLTGLLAGVSGVQAKIKSIRNMGFIIFTIGILGVIFWELMSVGDSFYI | failed |
| MLLLWLVVLVLGVAYLAHRRTPPAPALGISAAYLILMGVFSHAPGWLLLVFWLLWLAVALPLALPDLRRRVLSGPLFAWFQKVLPPMSDTEREAIEAGTVWWDGELFSGRPDWQKLLDYPKAQLTEEEQAFVDGPTEELCAMVSDWDIGQRMDLPEEAWAFIKQHGFFGLIIPKEYGGKGFSAFAHSQVVMKLATRSGDLASTVMVPNSLGPAELLLHYGTDEQRQRYLPSLAKGDDIPCFALTGPYAGSDAGGMTDVGIVCKGEWEGREVLGLRLTWEKRYITLGPVATLLGLAFKCHDPDHLLGDEEDLGITLALIPTDTPGVEIGRRHVPLGAAFMNGPNSGKDVFVPLEYIIGGQEMIGKGWMMLMNCLSVGRSISLPAVGTSAGKASSYVSGRYAQVREQFNVPIAAFEGIQEALARIGGNAWLMDSARILTANAVDLGEKPSVLSAILKYHLTERGRECIAHAMDIHGGKGIIMGPNNYLGRSWQGAPIFITVEGANILSRNLMIFGQGAIRCHPYVLKEMELAQREDKDQAAREFDALLVKHIGFAVGNAASSFLLSLSCGHLGNAPGDRISRPYFRALNRLAASFALLADFSMMLLGGELKRKERLSARLGDVLSYLYLGSAALKRYHDLGNPDYLHPLLRWAMEENLGKAEAALEDLLNNFPSRFFGCALKVLVLPFGRRHKGPGDELDAEIAEILGRPDDDPALQAILAGAFLPKDPQDPVGALAHAFDAVRESAALEKTLHKAIKEGRVQPQAGQNPIDAGAAAGVLSAEQAQALHQAEAARRKVIDVDDFAKEELQLADGRIR | failed |

From a protein production outcome set (Wang et al. 2014)
